Measurements as given in publication PMC4725753.

Biological target: the microbial proteins (competition ELISA with heparin, data not shown)
Experiment: ELISA; data not shown; immobilised microbial proteins incubated with vitronectin (5 μg/ml) that was pre-incubated with heparin (10 μM)

vitronectin purified from human plasma (natural protein)
percent inhibition by heparin (10 μM): 68 to 89%
